Where a chain is given by its changes, count along the chain named. In names and notes the source's numbering stands.
B1: BglA (β-glucosidase A) (Paenibacillus polymyxa; T231K) (protein)
chain: TIFQFPQDFMWGTATAAYQIEGAYQEDGRGLSIWDTFAHTPGKVFNGDNGNVACDSYHRYEEDIRLMKELGIRTYRFSVSWPRIFPNGDGEVNQEGLDYYHRVVDLLNDNGIEPFCTLYHWDLPQALQDAGGWGNRRTIQAFVQFAETMFREFHGKIQHWLTFNEPWCIAFLSNMLGVHAPGLTNLQTAIDVGHHLLVAHGLSVRRFRELGTSGQIGIAPNVSWAVPYSKSEEDKAACARTISLHSDWFLQPIYQGSYPQFLVDWFAEQGATVPIQDGDMDIIGEPIDMIGINYYSMSVNRFNPEAGFLQSEEINMGLPVTDIGWPVESRGLYEVLHYLQKYGNIDIYITENGACINDEVVNGKVQDDRRISYMQQHLVQVHRTIHDGLHVKGYMAWSLLDNFEWAEGYNMRFGMIHVDFRTQVRTPKESYYWYRNVVSNNWLETRR
B2: BglA (β-glucosidase A) (Paenibacillus polymyxa; Q216R) (protein)
chain: B1 chain with Q215R, K230T
B3: BglA (β-glucosidase A) (Paenibacillus polymyxa; E96R) (protein)
chain: B1 chain with E95R, K230T
B4: BglA (β-glucosidase A) (Paenibacillus polymyxa) (protein)
chain: B1 chain with K230T
B5: BglA (β-glucosidase A) (Paenibacillus polymyxa; E96K) (protein)
chain: B1 chain with E95K, K230T

What follows are proteins tested on O=[N+]([O-])c1ccc(O[C@@H]2O[C@H](CO)[C@@H](O)[C@H](O)[C@H]2O)cc1 (assay: purified protein). Details: 50 mM citrate phosphate buffer, pH 7.0, 37 °C, 5.5 min, 0.02-3 mM pNPG.

Protein	Km [µM]	kcat [s⁻¹]	kcat/Km [M⁻¹ s⁻¹]
B1	610 ± 70	36.3	59300
B2	460 ± 0	26	56900
B3	470 ± 20	21.2	44800
B4	1210 ± 30	44.7	36900
B5	190 ± 10	28.4	149000

— paper PMC4231051
